Reference: the RNAGym collection of RNA variant scans (doi:10.1093/molbev/msab373)

B1: Azoarcus group I ribozyme (parent)
chain: GUGCCUUGCGCCGGGAAACCACGCAAGGGAUGGUGUCAAAUUCGGCGAAACCUAAGCGCCCGCCCGGGCGUAUGGCAACGCCGAGCCAAGCUUCGGCGCCUGCGCCGAUGAAGGUGUAGAGACUAGACGGCACCCACCUAAGGCAAACGCUAUGGUGAAGGCAUAGUCCAGGGAGUGGCGAAAGUCACACAAACCGG

Variants of: B1
Test: reverse-splicing fitness (ratio to wild type); higher = more active; in vitro selection; Mg2+ level not given
Summary of the method: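 An in vitro group I ribozyme library with randomized positions was T7-transcribed and gel-purified. In triplicate, 10 pmol RNA in EPPS pH 7.5 was reacted with 50 pmoles of a 30-nt RNA substrate for 1 h at 37 °C across several added MgCl2 levels (1–48 mM), then stopped with EDTA. Products were reverse transcribed from a substrate-complementary primer, PCR-amplified and sequenced (HiSeq 4000). Fitness is a variant's read proportion after selection over that before, normalised to wild type.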

Row | Variant | reverse-splicing fitness
1 | C82U A111U A120U C150U C169U U176C | 0.0041
2 | C82U A111U A120U C150U C169U U176G | 0.00244
3 | C82U A111U A120U C150U U176A | 0.00668
4 | C82U A111U A120U C150U U176C | 0.0088
5 | C82U A111U A120U C150U U176G | 0.00363
6 | C82U A111U A120U C169A | 0.00267
7 | C82U A111U A120U C169A U176A | 0.00285
8 | C82U A111U A120U C169A U176C | 0.00317
9 | C82U A111U A120U C169A U176G | 0.00193
10 | C82U A111U A120U C169G | 0.00397
11 | C82U A111U A120U C169G U176A | 0.00316
12 | C82U A111U A120U C169G U176C | 0.00303
13 | C82U A111U A120U C169G U176G | 0.00193
14 | C82U A111U A120U C169U | 0.00477
15 | C82U A111U A120U C169U U176A | 0.00357
16 | C82U A111U A120U C169U U176C | 0.00325
17 | C82U A111U A120U C169U U176G | 0.0019
18 | C82U A111U A120U U176A | 0.00769
19 | C82U A111U A120U U176C | 0.0117
20 | C82U A111U A120U U176G | 0.00321
21 | C82U A111U A145C | 0.295

Row | Variant | reverse-splicing fitness
22 | C82U A111U A145C C150A | 0.0151
23 | C82U A111U A145C C150A C169A | 0.00809
24 | C82U A111U A145C C150A C169A U176A | 0.00998
25 | C82U A111U A145C C150A C169A U176C | 0.00618
26 | C82U A111U A145C C150A C169A U176G | 0.00585
27 | C82U A111U A145C C150A C169G | 0.00741
28 | C82U A111U A145C C150A C169G U176A | 0.0228
29 | C82U A111U A145C C150A C169G U176C | 0.0138
30 | C82U A111U A145C C150A C169G U176G | 0.00573
31 | C82U A111U A145C C150A C169U | 0.00873
32 | C82U A111U A145C C150A C169U U176A | 0.0138
33 | C82U A111U A145C C150A C169U U176C | 0.00882
34 | C82U A111U A145C C150A C169U U176G | 0.00574
35 | C82U A111U A145C C150A U176A | 0.0116
36 | C82U A111U A145C C150A U176C | 0.013
37 | C82U A111U A145C C150A U176G | 0.00625
38 | C82U A111U A145C C150G | 0.0299
39 | C82U A111U A145C C150G C169A | 0.00853
40 | C82U A111U A145C C150G C169A U176A | 0.00853
41 | C82U A111U A145C C150G C169A U176C | 0.0066
42 | C82U A111U A145C C150G C169A U176G | 0.006

Row | Variant | reverse-splicing fitness
43 | C82U A111U A145C C150G C169G | 0.0072
44 | C82U A111U A145C C150G C169G U176A | 0.00901
45 | C82U A111U A145C C150G C169G U176C | 0.00693
46 | C82U A111U A145C C150G C169G U176G | 0.00581
47 | C82U A111U A145C C150G C169U | 0.00864
48 | C82U A111U A145C C150G C169U U176A | 0.00804
49 | C82U A111U A145C C150G C169U U176C | 0.00969
50 | C82U A111U A145C C150G C169U U176G | 0.00515
51 | C82U A111U A145C C150G U176A | 0.00994
52 | C82U A111U A145C C150G U176C | 0.0175
53 | C82U A111U A145C C150G U176G | 0.00423
54 | C82U A111U A145C C150U | 0.0602
55 | C82U A111U A145C C150U C169A | 0.00776
56 | C82U A111U A145C C150U C169A U176A | 0.0108
57 | C82U A111U A145C C150U C169A U176C | 0.00663
58 | C82U A111U A145C C150U C169A U176G | 0.00651
59 | C82U A111U A145C C150U C169G | 0.00801
60 | C82U A111U A145C C150U C169G U176A | 0.0199
61 | C82U A111U A145C C150U C169G U176C | 0.0104
62 | C82U A111U A145C C150U C169G U176G | 0.00575
63 | C82U A111U A145C C150U C169U | 0.0089

Row | Variant | reverse-splicing fitness
64 | C82U A111U A145C C150U C169U U176A | 0.0134
65 | C82U A111U A145C C150U C169U U176C | 0.0076
66 | C82U A111U A145C C150U C169U U176G | 0.00525
67 | C82U A111U A145C C150U U176A | 0.0276
68 | C82U A111U A145C C150U U176C | 0.038
69 | C82U A111U A145C C150U U176G | 0.011
70 | C82U A111U A145C C169A | 0.00671
71 | C82U A111U A145C C169A U176A | 0.00952
72 | C82U A111U A145C C169A U176C | 0.00614
73 | C82U A111U A145C C169A U176G | 0.00457
74 | C82U A111U A145C C169G | 0.0091
75 | C82U A111U A145C C169G U176A | 0.0234
76 | C82U A111U A145C C169G U176C | 0.0126
77 | C82U A111U A145C C169G U176G | 0.00539
78 | C82U A111U A145C C169U | 0.0102
79 | C82U A111U A145C C169U U176A | 0.0134
80 | C82U A111U A145C C169U U176C | 0.0103
81 | C82U A111U A145C C169U U176G | 0.00463
82 | C82U A111U A145C U176A | 0.0966
83 | C82U A111U A145C U176C | 0.141
84 | C82U A111U A145C U176G | 0.0247
